Data reported in EP4814000A1.

Columns and labels:
003m-P215S-1×GCN4t-2,3N = experiment: flow cytometry, Expi293F cells, Lipofectamine 2000-mRNA
[1] = target: 003m-P215S-1×Fibritin (RSV); experiment: as above
003m-P215S-1×GCN4t-1N = experiment: as above
003m-P215S-1×GCN4t (RSV) [2] = experiment: as above
[3] = target: 003m-P215S-1×Fibritin-1N (RSV); experiment: as above
003m-P215S-1×GCN4t-2N = experiment: as above
003m-P215S-1×GCN4t-3N = experiment: as above
003m-P215S-1×GCN4t-1,2N = experiment: as above
003m-P215S-1×GCN4t-1,3N = experiment: as above
[4] = target: 003m-P215S-1×GCN4t-1,2,3N; experiment: as above
003m-P215S-1×GCN4t (RSV) [5] = experiment: flow cytometry, Expi293F cells, Lipofectamine 2000-mRNA; row 003m-P215S-1×GCN4t-opti5
[6] = target: RSV B-003m-P215S-1×GCN4t-C102A-C362S (RSV B); experiment: flow cytometry, Expi293F cells, Lipofectamine 2000-mRNA; mRNA RQ1
003m-P215S-1×GCN4t (RSV) [7] = experiment: flow cytometry, Expi293F cells, Lipofectamine 2000-mRNA; row 003m-P215S-1×GCN4t-opti3
[8] = target: 008m-Cys-P215S-1×GCN4t (RSV); experiment: flow cytometry, Expi293F cells, Lipofectamine 2000-mRNA
013m-Cys-P215S-1×GCN4t = experiment: as above
003m-P215S-1×GCN4t (RSV) [9] = experiment: as above; remark: listed apart in the source
[10] = target: 010m-Cys-P215S-1×GCN4t (RSV); experiment: as above
[11] = target: 009m-Cys-P215S-1×GCN4t (RSV); experiment: as above
011m-Cys-P215S-1×GCN4t = experiment: as above
[12] = target: 007m-Cys-P215S-1×GCN4t (RSV); experiment: as above
012m-Cys-P215S-1×GCN4t = experiment: as above
[13] = target: wild-type RSV B F (RSV B); experiment: flow cytometry, Expi293F cells, Lipofectamine 2000-mRNA; row WT-RQ3

Substance | MFI (003m-P215S-1×GCN4t-2,3N) | MFI [1] | MFI (003m-P215S-1×GCN4t-1N) | MFI (003m-P215S-1×GCN4t (RSV) [2]) | MFI [3] | MFI (003m-P215S-1×GCN4t-2N) | MFI (003m-P215S-1×GCN4t-3N) | MFI (003m-P215S-1×GCN4t-1,2N) | MFI (003m-P215S-1×GCN4t-1,3N) | MFI [4] | MFI (003m-P215S-1×GCN4t (RSV) [5]) | MFI [6] | MFI (003m-P215S-1×GCN4t (RSV) [7]) | MFI [8] | MFI (013m-Cys-P215S-1×GCN4t) | MFI (003m-P215S-1×GCN4t (RSV) [9]) | MFI [10] | MFI [11] | MFI (011m-Cys-P215S-1×GCN4t) | MFI [12] | also measured
D25-AF488 (antibody) | 70700 | 23000 | 59400 | 10400 | 235000 | 54000 | 43400 | 100000 | 122000 | 147000 | 4620 | 13900 | 4990 | 15700 | 14600 | 12200 | 13400 | 11500 | 10300 | 12800 | MFI (012m-Cys-P215S-1×GCN4t): 15800; MFI [13]: 36900
AM14-AF488 (antibody) | 39100 | 22300 | 37400 | 4870 | 242000 | 28800 | 25100 | 58400 | 71000 | 89600 | 2980 | 3640 | 3430 | 9780 | 7930 | 6700 | 8650 | 6450 | 7710 | 7680 | MFI (012m-Cys-P215S-1×GCN4t): 9390; MFI [13]: 55800
